The source of these data is doi:10.1101/2021.02.18.431817 (bioRxiv, 2021).

One test addresses T1, SAP2:CFP (A. thaliana, UniProt Q8H0X0 1-173).
T1 sequence (looked up): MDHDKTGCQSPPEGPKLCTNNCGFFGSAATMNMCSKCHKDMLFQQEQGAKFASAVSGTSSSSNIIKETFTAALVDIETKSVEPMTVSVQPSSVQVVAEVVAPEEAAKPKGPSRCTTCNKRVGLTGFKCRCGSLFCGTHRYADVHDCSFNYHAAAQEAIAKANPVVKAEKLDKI
The experiment in a line: FRET or BRET. In general terms: In BRET a luciferase serves as donor, and the signal depends on an acceptor being close.

In a further test the target is T2, SAP3:CFP (A. thaliana, UniProt Q9ZNU9 1-163).
T2 sequence (looked up): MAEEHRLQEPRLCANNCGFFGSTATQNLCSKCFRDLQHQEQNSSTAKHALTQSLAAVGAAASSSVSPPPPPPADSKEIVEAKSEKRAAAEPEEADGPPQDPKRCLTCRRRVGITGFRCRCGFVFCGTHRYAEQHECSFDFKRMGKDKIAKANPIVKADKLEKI
The experiment in a line: FRET or BRET.

B1: CML49:YFP (natural protein, A. thaliana, UniProt Q8W4L0 1-335, looked up)
chain: MSGYPPSSQGYGYGGNPPPPQPPYGSTGNNPPPYGSSGSNPPPPYGSSASSPYAVPYGAQPAPYGAPPSAPYASLPGDHNKPHKEKPHGASYGSPSPGGYGAHPSSGPSDYGGYGGAPQQSGHGGGYGGAPQQSGHGGGYGAPPPQASYGSPFASLVPSAFPPGTDPNIVACFQAADRDNSGFIDDKELQGALSSYNQSFSIRTVHLLMYLFTNSNVRKIGPKEFTSLFFSLQNWRSIFERFDKDRSGRIDTNELRDALMSLGFSVSPVILDLLVSKFDKSGGRNRAIEYDNFIECCLTVKGLTEKFKEKDTALSGSAIFNYENFMLTVLPFLVA
B1: the “FRET efficiency, fold of negative control” value in the test with SAP2:CFP and in the test with SAP3:CFP was > 5 fold of negative control throughout.
